Patent US7892771B2, “Crystal structure of soluble glutaminyl cyclase” (Academia Sinica, priority 2006, dated 2011)

Tested on: human QC
Experiment: Kinetic parameters of wild-type and mutant human QC
Type: biochemical
Settings: pH 8.0

Molecule	Km [µM]	kcat [s⁻¹]
R54W: site-directed mutant R54W of human QC (protein) MAGGRHRRVVGTLHLLLLVAALPWASRGVSPSASAWPEEKNYHQPAILNSSALWQIAEGTSISEMWQNDLQPLLIERYPGSPGSYAARQHIMQRIQRLQADWVLEIDTFLSQTPYGYRSFSNIISTLNPTAKRHLVLACHYDSKYFSHWNNRVFVGATDSAVPCAMMLELARALDKKLLSLKTVSDSKPDLSLQLIFFDGEEAFLHWSPQDSLYGSRHLAAKMASTPHPPGARGTSQLHGMDLLVLLDLIGAPNPTFPNFFPNSARWFERLQAIEHELHELGLLKDHSLEGRYFQNYSYGGVIQDDHIPFLRRGVPVLHLIPSPFPEVWHTMDDNEENLDESTIDNLNKILQVFVLEYLHL	760 ± 40	7.35 ± 0.26
F146A: site-directed mutant F146A of human QC (protein) MAGGRHRRVVGTLHLLLLVAALPWASRGVSPSASAWPEEKNYHQPAILNSSALRQIAEGTSISEMWQNDLQPLLIERYPGSPGSYAARQHIMQRIQRLQADWVLEIDTFLSQTPYGYRSFSNIISTLNPTAKRHLVLACHYDSKYASHWNNRVFVGATDSAVPCAMMLELARALDKKLLSLKTVSDSKPDLSLQLIFFDGEEAFLHWSPQDSLYGSRHLAAKMASTPHPPGARGTSQLHGMDLLVLLDLIGAPNPTFPNFFPNSARWFERLQAIEHELHELGLLKDHSLEGRYFQNYSYGGVIQDDHIPFLRRGVPVLHLIPSPFPEVWHTMDDNEENLDESTIDNLNKILQVFVLEYLHL	820 ± 160	7.91 ± 2.14
K144A: site-directed mutant K144A of human QC (protein) MAGGRHRRVVGTLHLLLLVAALPWASRGVSPSASAWPEEKNYHQPAILNSSALRQIAEGTSISEMWQNDLQPLLIERYPGSPGSYAARQHIMQRIQRLQADWVLEIDTFLSQTPYGYRSFSNIISTLNPTAKRHLVLACHYDSAYFSHWNNRVFVGATDSAVPCAMMLELARALDKKLLSLKTVSDSKPDLSLQLIFFDGEEAFLHWSPQDSLYGSRHLAAKMASTPHPPGARGTSQLHGMDLLVLLDLIGAPNPTFPNFFPNSARWFERLQAIEHELHELGLLKDHSLEGRYFQNYSYGGVIQDDHIPFLRRGVPVLHLIPSPFPEVWHTMDDNEENLDESTIDNLNKILQVFVLEYLHL	1470 ± 20	11.67 ± 0.34
W207F: site-directed mutant W207F of human QC (protein) MAGGRHRRVVGTLHLLLLVAALPWASRGVSPSASAWPEEKNYHQPAILNSSALRQIAEGTSISEMWQNDLQPLLIERYPGSPGSYAARQHIMQRIQRLQADWVLEIDTFLSQTPYGYRSFSNIISTLNPTAKRHLVLACHYDSKYFSHWNNRVFVGATDSAVPCAMMLELARALDKKLLSLKTVSDSKPDLSLQLIFFDGEEAFLHFSPQDSLYGSRHLAAKMASTPHPPGARGTSQLHGMDLLVLLDLIGAPNPTFPNFFPNSARWFERLQAIEHELHELGLLKDHSLEGRYFQNYSYGGVIQDDHIPFLRRGVPVLHLIPSPFPEVWHTMDDNEENLDESTIDNLNKILQVFVLEYLHL	590 ± 50	2.32 ± 0.07
Q304L: site-directed mutant Q304L of human QC (protein) MAGGRHRRVVGTLHLLLLVAALPWASRGVSPSASAWPEEKNYHQPAILNSSALRQIAEGTSISEMWQNDLQPLLIERYPGSPGSYAARQHIMQRIQRLQADWVLEIDTFLSQTPYGYRSFSNIISTLNPTAKRHLVLACHYDSKYFSHWNNRVFVGATDSAVPCAMMLELARALDKKLLSLKTVSDSKPDLSLQLIFFDGEEAFLHWSPQDSLYGSRHLAAKMASTPHPPGARGTSQLHGMDLLVLLDLIGAPNPTFPNFFPNSARWFERLQAIEHELHELGLLKDHSLEGRYFQNYSYGGVILDDHIPFLRRGVPVLHLIPSPFPEVWHTMDDNEENLDESTIDNLNKILQVFVLEYLHL	1160 ± 90	9.39 ± 1.18
E201D: site-directed mutant E201D of human QC (protein) MAGGRHRRVVGTLHLLLLVAALPWASRGVSPSASAWPEEKNYHQPAILNSSALRQIAEGTSISEMWQNDLQPLLIERYPGSPGSYAARQHIMQRIQRLQADWVLEIDTFLSQTPYGYRSFSNIISTLNPTAKRHLVLACHYDSKYFSHWNNRVFVGATDSAVPCAMMLELARALDKKLLSLKTVSDSKPDLSLQLIFFDGDEAFLHWSPQDSLYGSRHLAAKMASTPHPPGARGTSQLHGMDLLVLLDLIGAPNPTFPNFFPNSARWFERLQAIEHELHELGLLKDHSLEGRYFQNYSYGGVIQDDHIPFLRRGVPVLHLIPSPFPEVWHTMDDNEENLDESTIDNLNKILQVFVLEYLHL	12600 ± 2980	0.87 ± 0.28
W207L: site-directed mutant W207L of human QC (protein) MAGGRHRRVVGTLHLLLLVAALPWASRGVSPSASAWPEEKNYHQPAILNSSALRQIAEGTSISEMWQNDLQPLLIERYPGSPGSYAARQHIMQRIQRLQADWVLEIDTFLSQTPYGYRSFSNIISTLNPTAKRHLVLACHYDSKYFSHWNNRVFVGATDSAVPCAMMLELARALDKKLLSLKTVSDSKPDLSLQLIFFDGEEAFLHLSPQDSLYGSRHLAAKMASTPHPPGARGTSQLHGMDLLVLLDLIGAPNPTFPNFFPNSARWFERLQAIEHELHELGLLKDHSLEGRYFQNYSYGGVIQDDHIPFLRRGVPVLHLIPSPFPEVWHTMDDNEENLDESTIDNLNKILQVFVLEYLHL	1770 ± 70	0.43 ± 0.01
F325A: site-directed mutant F325A of human QC (protein) MAGGRHRRVVGTLHLLLLVAALPWASRGVSPSASAWPEEKNYHQPAILNSSALRQIAEGTSISEMWQNDLQPLLIERYPGSPGSYAARQHIMQRIQRLQADWVLEIDTFLSQTPYGYRSFSNIISTLNPTAKRHLVLACHYDSKYFSHWNNRVFVGATDSAVPCAMMLELARALDKKLLSLKTVSDSKPDLSLQLIFFDGEEAFLHWSPQDSLYGSRHLAAKMASTPHPPGARGTSQLHGMDLLVLLDLIGAPNPTFPNFFPNSARWFERLQAIEHELHELGLLKDHSLEGRYFQNYSYGGVIQDDHIPFLRRGVPVLHLIPSPAPEVWHTMDDNEENLDESTIDNLNKILQVFVLEYLHL	4670 ± 240	12.91 ± 0.06
W329A: site-directed mutant W329A of human QC (protein) MAGGRHRRVVGTLHLLLLVAALPWASRGVSPSASAWPEEKNYHQPAILNSSALRQIAEGTSISEMWQNDLQPLLIERYPGSPGSYAARQHIMQRIQRLQADWVLEIDTFLSQTPYGYRSFSNIISTLNPTAKRHLVLACHYDSKYFSHWNNRVFVGATDSAVPCAMMLELARALDKKLLSLKTVSDSKPDLSLQLIFFDGEEAFLHWSPQDSLYGSRHLAAKMASTPHPPGARGTSQLHGMDLLVLLDLIGAPNPTFPNFFPNSARWFERLQAIEHELHELGLLKDHSLEGRYFQNYSYGGVIQDDHIPFLRRGVPVLHLIPSPFPEVAHTMDDNEENLDESTIDNLNKILQVFVLEYLHL	29500 ± 2290	1.35 ± 0.07
